Experimental data reported in patent publication US20210198647A1, “Enhancers of Neurolysin Activity” (Texas Tech University System, priority 2018, published 2021).

Experiments:
[1] = target: N-terminal polyhistidine tagged recombinant rat neurolysin (rat) (UniProt P42676); assay: cell-based or functional assay
mouse plasma proteins = assay: rapid equilibrium dialysis (RED), mouse plasma, 500 ng/mL

Substance | formation of angiotensin-(1-7) from angiotensin I (20 µM), mass spectrometry, 100 µM modulator [1] [fold] | formation of bradykinin-(1-5) from bradykinin (20 µM), mass spectrometry, 100 µM modulator [1] [fold] | formation of neurotensin-(1-10) from neurotensin (20 µM), mass spectrometry, 100 µM modulator [1] [fold] | fu in Plasma (fraction unbound) (mouse plasma proteins)
NlnA#2, NSC 523374, D,L-histidyl-D,L-histidine (peptide) | 6 | 2 | 3 | –
NlnA#1, NSC 374121, L-histidyl-L-tyrosine (peptide) | 6 | 2 | 3 | 0.66
His-Trp (peptide) | – | – | – | 0.93
